From the nanobody polyreactivity screen of Harvey et al. (2022) come the findings set out here.

The data set can be described thus: yeast display, Sf9 membrane polyspecificity reagent, FACS + sequencing; frameworks hold sequencing errors. In outline: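 In a synthetic yeast display library (Saccharomyces cerevisiae BJ5465), nanobody expression was induced with galactose for 36–48 hours. FACS gates were set low and high (top ~1%) using anti-HA fluorescence for expression and streptavidin fluorescence for binding of the Sf9 membrane reagent. Each polyreactivity label is drawn from the gate of origin.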
On to “QVQLVESGGGLVQAGGSLRLSCAASGSTFSPYAMGWYRQAPGKERELVAGITSSGGDTYYADSVKGRFTISRDNAKNTVYLQMNSLKPEDTAVYYCAAGLQGYPRKFNYWGQGTQVTVSS”, for which the “polyreactivity (PSR sort gate)” value is recorded as “low polyreactivity”.
With “QVHLVESGGGLVQAGGSLRLSCAASGSTFSIYTMGWYRQAPGKERELVAVITKSGGSTYYADSLKGRFTISRDNAKNTVYLQMISLKPEDIAVYYCAARRRGARHDYWGQGTQVTVSS” the entry was “high polyreactivity”; with “QVQLVESGGGLVQAGGSLRLSCAASRRIFSRYAMGWYRQAPGKERELVAAITGRGGSTYYADSVKGRFTISRDNAKNTVYLQMNSLKPEDTAVYYCAADVPPRRNFVKYYYWGQGTQVTVSS”, “high polyreactivity”.
In the case of “QVQLVESGGGLVQAGGSLRLSCAATGSTFATNAMGWYKQAPGKEREFVAAISRRGGRTYYADSVKGRFTISRDNAKNTVYLKMNSVKPEDTAVYYCNTLRVGWGQGTQVTVSS”, the “polyreactivity (PSR sort gate)” value is listed as “high polyreactivity”.
With “QVQLVESGGGLVQAGGSLRLSCAASGSTFWGNAMGWYRQAPGKERELVATITDGGSTNYADSVKGRFTISRDNAKNTVYLQMNSLKPEDTAVYYCNAEEHYNTYVLHFRPYYVRHDYWGQGTQVTVSS” the entry was “low polyreactivity”; with “QFQLVESGGGLVQAGGSLRLSCAATGSIIGANAMGWYRQAPGKERELVAAISTRGGRTYYADSVKGRFTISRDNAKNTVYLQMNSLKPEDTAVYYCATSGGRPYKYEYWGQGTQVTVSS”, “high polyreactivity”.
Under “QVQLVESGGGLVQAGGSLRLSCAASGRIFWEYAMGGYRQAPGKERELVAAITWRVGSTYYADSVKGRFTISRDYAKNTVYLQMNSLKPEDTAVFYCAAARYLSIYNYWGHGTQVTVSS” stands “low polyreactivity”; under “QVQLVESGGGLVQAGGSLRLSCAASVRTSSKYALGWYRQAPGKERELVAGISASGTRTYYADSVKGRFTISRDNAKNTVYLQMNSLKPEDTAVYYCATSFFWYYYWGQGTQVTVSS”, “high polyreactivity”; under “QVQLVESGGGLVQAGGSLRLSCAASGITFQNYAMGWYRQAPGKERELVAAITGRGGSTYYADSVKGRFTISRDNAKHTVYLQMNSLKPEDTAVYYCATDRRGYRDDYWGQGTQVTVSS”, “high polyreactivity”.
Regarding “QVQLVESGGGLVQAGGSLRLSCAASGSTFAFNAMGWYRQAPGQERELVAGITWSSGSTYYADSVKGRFTISRDNAKNTVYLQMNSLKPEDTAVYYCNVQSVHFRLWKDNYWGQGTQVTVSS”, the “polyreactivity (PSR sort gate)” value is “high polyreactivity”.
Under “QVQLVESGGGLVQAGGSLRLSCAASGSIFFGNVMGWYRQAPGKERELVAVISWSGGTTYYADSVKGRFTISRDNAKNTVYLQMNSLKAEYTAVYYCNARYLRRGDYWGQGTQVTVSS” stands “low polyreactivity”; under “QVQLVESGGGLVQAGGSLRLSCAASGRIFTHNAIGWYRQAPGKERELVAGISYGGGSTYYADSVKGRFTISRDNAKITVYLQMNSLKPEDTAVYYCIAYIYDTYYWGQGTQVTVSS”, “low polyreactivity”; under “QVQLVESGGGLVQAGGSLRLSCAASGRTFLVNAMGWYRQAPGKEREFVAAITSRSGRTNYADSVKGRFTISRDNAKNTVYLEMNSLKPEDTAVYYCNAEGYTVKYWYSRYDYWGQGTQVTVSS”, “high polyreactivity”.
“QVQLVESGGGLVQAGGSLRLSCAASGFIFLYYAMGWYRQAPGKERELVADISRGADTKYADSVKGRFTISRDNAKNTVYLQMNSLKPEDTAVYYCATDITTFWVPYPGVELGYWGQGTQVTVSS”: the “polyreactivity (PSR sort gate)” value was “low polyreactivity”.
“QVQLEESGGGLVQAGGSLRLSCAASGITFPRYAMGWYRQAPGKERELVAAIRWNGGSTYYADSVKGRFTISRDNAKNTVYLQMNSLKPEDTAVYYCAARKDPSFSSFGYGYWGQGTQVTVSS”: the “polyreactivity (PSR sort gate)” value is recorded as “high polyreactivity”.
Under “QVQLVESGGGLVQAGGSLRLSCAASGLTFGVNAMGWSRQAPGKERELVAAISGSGGRTNYADSVKGRFTISRDNAKNTVYLQMNSLKPEDTAVYYCNARFPDWALSEISHSTTYGYWGQGTQVTVSS” stands “low polyreactivity”.
Regarding “QVQLVESGGGLVQAGGSLRLSCAASGRTFYPNAMGWYRQAPGKERELVAAITWRSGSTYYADSVKGRFTISRDNAKNTVYLQMNSLKPEDTAVYYCNADSDYPYYPGKFDYWGQGTQVTVSS”, the “polyreactivity (PSR sort gate)” value was “low polyreactivity”.
Under “QEQLQESGGGLVQAGGSLRLSCAASGSISGSSTMGWYRQAPGKERELVASIAVGANTNYADSAKGRFTISRDNAKNTVYLQMNSLKPEDTAVYYCAVDYYIYYFHYWGQGTQVTVSS” stands “high polyreactivity”; under “QVQLQESGGGLVQAGGSLRLSCAASGYISHADEMGWYRQAPGKEHELVASISNGGSTNYADSVKGRFTISRDNAKNTLYLQMNSLKSEDTAVNYCAAWTGQVDIHYYWGHGTQVTVSS”, “low polyreactivity”; under “QVQLQESGGGMVLAGGSLRLSCSASGTISVYGTMGWYRQAPGKEREFVATIDPGTHTNYADSVKDRFTISRDNAKNTVYLKMNSLKPEVTAVYSCAVEAGSDWPYRYWGQGTQVTVSS”, “low polyreactivity”.
With “QVQLVESGGGLVQAGGSLRLSCAASGFIFGRYTMGWYRQAPGKERELVAAITYSGNTYYADSVKGRFTISRDNAKNTVYLQMNSLKPEDTAVYYCNAYGANFRAFRNAYKYWGQGTQVTVSS” the entry was “high polyreactivity”.
Under “QVQLVESGGGLVQAGGSLRLSCAASGRIFQRYTMGWYRQAPGKEWEFVAAITYSGGSTHYADSVKGRFTISRDNAKNTVYLQMNSLKPEDTAVYYCATDYIRYRWYVFYGWLWRYDYWGQGTQVTVSS” stands “low polyreactivity”; under “QVQLVESGGGLVQAGGSLRLSCAASGRIFLGNAMGWYRQAPGKERELVAAITNGGGSTYYADSVKGRFTISRDTAKNTVYLQMNSLKPEDTAVYYCARGYKKSVQRFEYWGQGTQVTVSS”, “high polyreactivity”.
For the sequence “QVQLLESGGGLVQAGGSLRLSCAASGLIFRSYAMGWYRQAPGKERELVARISIRGGSTYYADSVKGRFTISRDNAKNTVYLQMNCLKPEDTAVYYCAAVGYFGGYRYDYWGQGTQVTVSS”, the “polyreactivity (PSR sort gate)” value was “high polyreactivity”.
Under “QVQLVESGGGLVQAGGSLRLSCAASGRTLGYNAVGWYRQAPGKERELVAAINGGDSTYADSVKGRFTISRDNAKNTVYLQMNSLKPEDTAVYYCNALRGGPFRWHGYYYWGQGTQVTVSS” stands “low polyreactivity”; under “QFQLVESGGGLVQAGGSLRLSCAASGRIRDNARGWYRQAPGKERELVAAISSSGGSTYYADSVKGRFTISRDNAKNTVYLQMNSLKPEDTAVYYCNAVRTGKIFGSWGQGTQVTVSS”, “high polyreactivity”; under “QVQLVESGGGLVQAGGSLRLSCAASGRIFVLYDMGWYRQAPGKERELVAGISGSGGRTYYADSVKGRFTISRDNAKNTVYLQMNSLKPEDTAVYYCNARGYYWYRPYVNSNGGYWGQGTQVTVSS”, “high polyreactivity”.
On to “QVQLVESGGGLVQAGGSLRLSCAASGSTFRYNAMGWYRQPPGKERELVAAISSGGSTNYADSVKGRFTISRDNAKNTVYLQMNSLKPEDTAVYYCAATRPRIPVYQNNYGYWGQGTQVTVSS”, for which the “polyreactivity (PSR sort gate)” value was “high polyreactivity”.
With “PVQLVESGGGLVQAGGSLRLSCAASGSTFAYNDLGWYRQAPGKERELVADIRSGGNTNYADSVKGRFTISRDNAKNTVYLQMNSLKPEDTAVYYCATDGYRIDVFHPDYRYDYWGQGTQETVSS” the entry was “low polyreactivity”.
Under “PVQLVESGGGLVQAGGSLRLICAASGSIFYQYTMGWYRQAPGKERELVATISWSDVSTYYADSVKGRFTISRENAQNPVYLQMNSLKPEDTSVYYCAALYSGWDRYYGYDYWGQGTQVTVSS” stands “low polyreactivity”.
